From patent US20220073922, “Aptamers and use thereof” (Aptitude Medical Systems, Inc., published 2022)

What was measured:
[1] = target: T1, VEGF-165 (VEGFA isoform 165) (Homo sapiens); assay: flow; PBSMCT, 37 C; Table 6 gives a different value; settings: chain copies: 2 (inferred); label: biotin; stem-loop with bulges
T1 chain: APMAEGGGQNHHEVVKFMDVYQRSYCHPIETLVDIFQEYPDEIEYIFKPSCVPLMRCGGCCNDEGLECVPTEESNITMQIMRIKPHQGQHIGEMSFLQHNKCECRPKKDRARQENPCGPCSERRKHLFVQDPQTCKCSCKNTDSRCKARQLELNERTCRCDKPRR
Procedure: (§1) Truncated and modified variants of the anti-VEGF aptamers of the present disclosure were prepared by LGC Biosearch Technologies (Novato, Calif.), and their binding affinity to corresponding targets were examined. Briefly, the equilibrium binding constants of the enriched libraries were measured using magnetic bead partitioning. Biotinylated anti-VEGF aptamers were conjugated to the 1 μm streptavidin-coated MyOne Streptavidin Cl magnetic beads (Thermo Fisher Scientific, 65002). Binding assays were performed by incubating fixed concentration of anti-VEGF aptamer (0.01 nM) and target protein at concentrations ranging from 10⁻¹² to 10⁻⁸ M in PBSMCT buffer (DPBS, pH 7.2 with 2.5 mM MgCl₂, 1 mM CaCl₂) and 0.01% TWEEN-20) at 37° C. for 90 minutes. Bound target protein was partitioned by magnetic separation and subsequently labeled via fluorescent anti-VEGF or anti-His-tag antibody. The fraction of anti-VEGF aptamer bound was quantified by flow cytometry (BD Accuri C6 Plus). Raw binding data were corrected for nonspecific background binding of target protein to empty magnetic beads. The fraction of bound anti-VEGF aptamer was plotted as a function of protein concentration and a non-linear curve-fitting algorithm (Langmuir one-site binding model) was used to extract equilibrium binding constants (KD values) from the data (FIG. 1).

[2] = target: T2, VEGF-121 (VEGFA isoform 121) (Homo sapiens, UniProt P15692 SEQ:1-121); assay: as above; settings: chain copies: 2 (inferred); label: biotin; stem-loop with bulges
Procedure: as §1

[3] = target: T1, VEGF-165 (VEGFA isoform 165); assay: competition; blocks VEGF-R1 and VEGF-R2 binding; PBSMCT, 37 C; settings: chain copies: 2 (inferred); label: biotin; stem-loop with bulges
Procedure: (§2) Three different recombinant VEGF receptors (two VEGF-R1 and one VEGF-R2) were tested (R&D Systems, 3516-FL, 321-FL, and 357-KD). […] VEGF-bound receptors and anti-VEGF aptamers were partitioned by magnetic separation, and the VEGF-bound VEGF receptors were subsequently labeled via a fluorescent anti-human antibody. The fraction of VEGF-bound receptor was quantified by flow cytometry (BD Accuri C6 Plus). Raw binding data were corrected for nonspecific background binding and normalized to the fluorescence intensity from the sample with 1 nM VEGF receptor but without anti-VEGF aptamer competition. The fraction of bound receptor was plotted as a function of anti-VEGF aptamer concentration and a non-linear curve-fitting algorithm (dose-response inhibition) was used to extract IC₅₀ values from the data (FIG. 2).

[4] = target: T2, VEGF-121 (VEGFA isoform 121); assay: as above; settings: chain copies: 2 (inferred); label: biotin; stem-loop with bulges
Procedure: as §2

[5] = target: T1, VEGF-165 (VEGFA isoform 165); assay: flow; PBSMCT, 37 C; Table 7 gives a different value; settings: chain copies: 2 (inferred); label: biotin; stem-loop with bulges
Procedure: as §1

[6] = target: T2, VEGF-121 (VEGFA isoform 121); assay: as above; settings: chain copies: 2 (inferred); label: biotin; stem-loop with bulges
Procedure: as §1

[7] = target: T3, Angiopoietin-2 (Ang2) (Homo sapiens, UniProt O15123 O15123:19-496); assay: flow; PBSMCT, 37 C; settings: tags: His tag, R&D Systems 623-AN; label: biotin
T3 sequence (O15123 19-496, one chain of several): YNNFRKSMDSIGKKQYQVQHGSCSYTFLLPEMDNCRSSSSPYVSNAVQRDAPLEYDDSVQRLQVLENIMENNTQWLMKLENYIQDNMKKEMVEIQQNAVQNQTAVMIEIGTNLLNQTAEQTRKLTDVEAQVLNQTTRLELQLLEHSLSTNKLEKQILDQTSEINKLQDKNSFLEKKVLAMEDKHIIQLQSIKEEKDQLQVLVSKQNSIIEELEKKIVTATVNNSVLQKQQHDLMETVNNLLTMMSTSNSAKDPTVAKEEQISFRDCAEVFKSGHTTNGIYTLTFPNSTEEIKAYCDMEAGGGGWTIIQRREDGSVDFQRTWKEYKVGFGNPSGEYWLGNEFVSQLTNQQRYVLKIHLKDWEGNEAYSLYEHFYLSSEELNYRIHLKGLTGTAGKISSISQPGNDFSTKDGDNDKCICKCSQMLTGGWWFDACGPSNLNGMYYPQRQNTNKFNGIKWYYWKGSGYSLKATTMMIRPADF
Procedure: (§3) Various mutations and truncated variants of a representative anti-Ang2 aptamer (AMS0525) were obtained and their binding affinity to Ang2 were measured using magnetic bead partitioning. Biotinylated anti-Ang2 aptamers were conjugated to the 1 μm streptavidin-coated MyOne Streptavidin Cl magnetic beads (Thermo Fisher Scientific, 65002). Binding assays were performed by incubating fixed concentration of aptamer (0.01 nM) and Ang2 protein at concentrations ranging from 10⁻¹² to 10⁻⁸ M in PBSMCT buffer (DPBS, pH 7.2 with 2.5 mM MgCl₂, 1 mM CaCl₂) and 0.01% TWEEN-20) at 37° C. for 90 minutes. Bound target protein was partitioned by magnetic separation and subsequently labeled via fluorescent anti-His-tag antibody. The fraction of anti-Ang2 aptamer bound was quantified by flow cytometry (BD Accuri C6 Plus). Raw binding data were corrected for nonspecific background binding of target protein to empty magnetic beads. The fraction of bound anti-Ang2 aptamer was plotted as a function of protein concentration and a non-linear curve-fitting algorithm (Langmuir one-site binding model) was used to extract equilibrium binding constants (KD values) from the data (FIG. 4A).

[8] = target: Angiopoietin-2 (Ang2) (Mus musculus, UniProt O35608 O35608:19-496); assay: flow; PBSMCT, 37 C; settings: tags: R&D Systems 7186-AN; label: biotin
Sequence of Angiopoietin-2 (Ang2) (Mus musculus, UniProt O35608 O35608:19-496) (O35608 19-496, one chain of several): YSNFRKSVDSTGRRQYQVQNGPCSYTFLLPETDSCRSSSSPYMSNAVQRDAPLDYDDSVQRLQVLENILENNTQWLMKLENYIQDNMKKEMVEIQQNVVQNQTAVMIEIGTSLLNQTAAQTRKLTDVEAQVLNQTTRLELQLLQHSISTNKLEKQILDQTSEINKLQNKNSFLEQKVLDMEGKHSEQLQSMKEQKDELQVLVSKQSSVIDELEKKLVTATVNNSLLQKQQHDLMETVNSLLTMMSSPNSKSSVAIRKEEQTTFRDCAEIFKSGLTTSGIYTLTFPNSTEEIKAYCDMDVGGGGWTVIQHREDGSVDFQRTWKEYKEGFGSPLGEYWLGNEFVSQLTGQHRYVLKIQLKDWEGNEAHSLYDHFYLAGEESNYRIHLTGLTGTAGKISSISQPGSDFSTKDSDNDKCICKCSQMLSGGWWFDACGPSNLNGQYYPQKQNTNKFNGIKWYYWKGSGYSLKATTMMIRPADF
Procedure: as §3

[9] = target: T3, Angiopoietin-2 (Ang2); assay: competition; blocks Ang2-Tie2 binding; PBSMCT, 37 C; settings: tags: His tag, R&D Systems 623-AN; label: biotin
Procedure: (§4) Ang2-bound Tie2 and anti-Ang2 aptamers were partitioned by magnetic separation, and the Ang2-bound Tie2 were subsequently labeled via a fluorescent anti-human antibody. The fraction of Ang2-bound receptor was quantified by flow cytometry (BD Accuri C6 Plus). Raw binding data were corrected for nonspecific background binding and normalized to the fluorescence intensity from the sample with 1 nM Tie2 but without anti-Ang2 aptamer competition. The fraction of bound receptor was plotted as a function of anti-Ang2 aptamer concentration and a non-linear curve-fitting algorithm (dose-response inhibition) was used to extract IC₅₀ values from the data (FIG. 4C).

[10] = target: Angiopoietin-1 (Ang1) (Homo sapiens, UniProt Q15389 Q15389:16-498); assay: flow; does not recognize human Ang1; settings: tags: R&D Systems 923-AN; label: biotin
Sequence of Angiopoietin-1 (Ang1) (Q15389 16-498, one chain of several): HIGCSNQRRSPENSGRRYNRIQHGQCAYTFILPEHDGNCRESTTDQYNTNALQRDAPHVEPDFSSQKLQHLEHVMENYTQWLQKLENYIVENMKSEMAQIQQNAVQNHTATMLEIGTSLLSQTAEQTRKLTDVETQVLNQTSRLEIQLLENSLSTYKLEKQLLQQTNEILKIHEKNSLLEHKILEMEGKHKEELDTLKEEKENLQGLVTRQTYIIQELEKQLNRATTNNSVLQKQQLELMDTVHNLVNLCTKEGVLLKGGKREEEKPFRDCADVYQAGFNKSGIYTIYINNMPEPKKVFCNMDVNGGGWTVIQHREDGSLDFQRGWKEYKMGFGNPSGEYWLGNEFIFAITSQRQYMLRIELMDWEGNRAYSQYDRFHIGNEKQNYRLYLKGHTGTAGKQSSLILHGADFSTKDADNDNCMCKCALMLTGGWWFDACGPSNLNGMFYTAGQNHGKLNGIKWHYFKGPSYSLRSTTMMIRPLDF

[11] = target: T3, Angiopoietin-2 (Ang2); assay: competition; blocks Ang2-Tie2; settings: tags: His tag, R&D Systems 623-AN; label: 5'-biotin
Procedure: as §4

[12] = target: T3, Angiopoietin-2 (Ang2); assay: flow; settings: tags: His tag, R&D Systems 623-AN; label: 5'-biotin
[13] = target: T2, VEGF-121 (VEGFA isoform 121); assay: flow; settings: chain copies: 2 (inferred); label: 5'-biotin
[14] = target: T1, VEGF-165 (VEGFA isoform 165); assay: flow; PBSMCT, 37 C; settings: chain copies: 2 (inferred); label: biotin; stem-loop with bulges
Procedure: as §1

[15] = target: T2, VEGF-121 (VEGFA isoform 121); assay: flow; PBSMCT, 37 C; settings: chain copies: 2 (inferred); label: biotin; stem-loop with bulges
Procedure: as §1

B1: AMS0426 (ssRNA)
RNA: CGUGGAGAUGCAUUCUGUCGAAGAUUGGCUAACACG
modifications: 2'-F all positions
Kd [1]: 151 pM | Kd [2]: 86 pM | IC50 [3]: ~100 pM | IC50 [4]: ~100 pM | Kd [5]: 349 pM | Kd [6]: 214 pM

B2: AMS0526 (ssRNA)
RNA: CGCAUAGAUAAGCCAACAAACGUACAUUCUCUGUUAGUAUUUUCUGCG
modifications: 2'-F all positions
Kd [7]: 32 pM | Kd [8]: < 100 pM | IC50 [9]: 83.9 pM | binding result [10]: no binding

B3: AMSB103 (ssRNA)
RNA: CGCUAGAUGGCUAACACUAUUGUGGAGAUGCACUAGCGCGCAUAGAUAAGCCAACAAACGUACAUUCUCUGUUAGUAUUUUCUGCG
modifications: 2'-F all positions
IC50 [11]: < 100 pM | Kd [12]: 29 pM | Kd [13]: 39 pM

B4: AMS0427 (ssRNA)
RNA: CGCUAGAUGGCUAACACUAUUGUGGAGAUGCACUAGCG
modifications: 2'-F all positions
Kd [14]: 91 pM | Kd [15]: 45 pM | IC50 [3]: ~100 pM | IC50 [4]: ~100 pM
